Reference: patent US10215752

Biological target: His-tag GafD lectin (Escherichia coli) (UniProt Q47341)
Assay: concentration dependent nIR fluorescence loading curves, ks against concentration, GafD on Ni-NTA SWNT/chitosan sensor

Chain of His-tag GafD lectin (Escherichia coli) (Q47341 23-200 limits assumed): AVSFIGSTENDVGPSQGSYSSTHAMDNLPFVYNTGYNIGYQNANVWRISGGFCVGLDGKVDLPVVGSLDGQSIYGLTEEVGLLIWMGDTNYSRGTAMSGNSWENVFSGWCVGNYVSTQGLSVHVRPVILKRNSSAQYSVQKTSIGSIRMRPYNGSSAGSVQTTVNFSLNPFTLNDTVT

Kd: 4 µM
koff: 0.0082 s⁻¹
Substance: murine produced anti His-tag antibody (Sigma H1029)
